Test results: patent publication US8030017B2, “Thermostable luciferases and methods of production” (Promega Corporation, priority 1997, dated 2011)

Columns and labels:
[1] = Retention of luminescence activity at pH 4.5 and 48° C.; type: physicochemical; details: pH 4.5 and 48° C. (FIG. 54B)
Experimental: Three populations of random mutants were produced using clone Luc90-1B5 as a template. These three populations were screened on the robot as experiments 114, 115, and 117. […] These screening conditions were biased to select clones that have increased retention of luminescence activity over time at pH 4.5 at 48° C. and increased luminescence activity when assayed at pH 7.1 with 10 μM ATP. Seventeen clones from experiment 114, seven clones from experiment 115, and ten clones from experiment 116 were shuffled together using sPCR and selected mutants from this screen were run on the robot as experiment 117. Eighteen clones were selected from experiment 117.

[2] = Robotic quantitative screen of E. coli lysates: signal stability (S), sustained enzymatic turnover; type: biochemical; details: inverse ratio with reference; Control is Luc85-4F12 at 65° C. (=1)
Experimental: One daughter plate is placed in the luminometer and the 1X assay method is used. After the assay, the plate is placed in the ambient incubator, and the second daughter plate is placed in the luminometer. For the second plate, the 0.02X assay method is used. This plate is discarded, and the first plate is returned from the incubator to the luminometer. The repeat assay method is used (i.e., no reagent is injected). Afterwards, the plate is again returned to the ambient incubator.
The plate in the ambient incubator is returned to the luminometer and the repeat assay method is again used. The plate is returned afterwards to the ambient incubator.
The plate in the ambient incubator is returned to the luminometer and the repeat assay method is again used. The plate is discarded afterwards.
The following criteria were used for screening purposes. The temperature chosen for the enzyme stability parameter was such that the parent enzyme would decay 100 to 1000 fold over 10 hours (see Table 1). Criteria 1 is achieved manually; data for criteria 2-6 is generated by robotic analysis. For all criteria, the maximum value as described is selected. • 1. In vivo screen. The brightest clones are selected at a given temperature. • 2. Expression/specific activity. The value for normalized luminescence is calculated as the ratio of luminescence to optical density. The value is reported as the ratio with the reference value. • 3. Enzyme stability. Measurements of normalized luminescence of the incubated samples (3 taken over about 15 hours) are fitted to In(L)=In(L0)−(t/τ), where L is normalized luminescence and t is time. τ is a measure of the enzyme stability. The value is reported as the ratio with the reference value, and the correlation coefficients are calculated. • 4. Substrate binding. Measurements of normalized luminescence with 1X and 0.02X are taken at the initial reading set, and 1X and 0.06X are taken at the 5 hour set. The ratio of the 0.02X:1X and 0.06X:1X gives the relative luminescence at 0.02X and 0.06X concentrations. These values, along with the relative luminescence at 1X (i.e., 1), are fitted to a Lineweaver-Burk plot to yield the Km:app,total for the substrates ATP, luciferin, and CoA. The values are reported as the inverse ratio with the reference value, and the correlation coefficients are calculated. • 5. Signal stability. The luminescence of the initial IX luminescent reactions are re-measured 3 additional times over about 15 hours. These values are fitted to In(L)=In(L0)−(t/τ) and the integral over t (15 hours) is calculated. Signal stability is then calculated as S=(1−int(L)/L0t)^2. The values are reported as the inverse ratio with the reference value, and the correlation coefficients are calculated. • 6. Composite fitness. The values of criteria 2 through 5 are combined into a single composite value of fitness (or commercial utility). This value is based on a judgment of the relative importance of the other criteria. This judgment is given below:
Calculate signal stability (S): For each sample, use linear regression to fit In(L)=In(L0)[…] using the four luminescence measurements of the initial microplate with 1X substrate concentrations (Plates 1, 3, 4, and 7). Also calculate the regression coefficient. From the calculated values of T and L0, calculate the integral of luminescence by int(L)=τL0(1−exp(−tf/τ)), where tf is the average time of the last measurement (e.g., 15 hours). The signal stability is calculated as S=(1−int(L)/Litf)^2, where Li is the initial measurement of normalized luminescence with 1× substrate concentration (Plate 1).
[Note: To correct for evaporation, an equation S=(1+K−int(L)/Litf)^2, may be used where 1/K=2(relative change of liquid volume at tf).]
Calculate the reference-normalized values: For the criteria parameter of each sample, a reference-normalized value is determined by calculating the ratio or inverse ratio with the respective reference value. […]

B1: Luc90-1B5: mutant luciferase, SEQ ID NO:24 (protein)
chain: MADKNILYGPEPFYPLEDGTAGEQMFDALSRYADIPGCIALTNAHTKENVLYEEFLKLSCRLAESFKKYGLKQNDTIAVCSENGLQFFLPVIASLYLGIIVAPVNDKYIERELIHSLGIVKPRIVFCSKNTFQKVLNVKSKLKSIETIIILDLNEDLGGYQCLNNFISQNSDSNLDVKKFKPYSFNRDDQVALIMFSSGTTGLPKGVMLTHKNIVARFSLAKDPTFGNAINPTTAILTVIPFHHGFGMMTTLGYFTCGFRVVLMHTFEEKLFLQSLQDYKVESTLLVPTLMAFLAKSALVEKYDLSHLKEIASGGAPLSKEIGEMVKKRFKLNFVRQGYGLTETTSAVLITPKGDAKPGSTGKIVPFHAVKVVDPTTGKILGPNEPGELYFKGPMIMKGYYNNEEATKAIIDNDGWLRSGDIAYYDNDGHFYIVDRLKSLIKYKGYQVAPAEIEGILLQHPYIVDAGVTGIPDEAAGELPAAGVVVQTGKYLNEQIVQDYVASQVSTAKWLRGGVKFLDEIPKGSTGKIDRKVLRQMFEKHTNG
modifications: Mutant luciferase
[1]
  half-life: about 3 minutes
[2]
  Signal stability (S): 1.0011
